Reference: the supplement of paper PMC7877785
± gives the uncertainty stated by the source.

Experiment: self-splicing fitness, log relative to wild type (ln ratio); higher = more splicing; Tetrahymena group I intron in knt gene, E. coli kanamycin selection, DiMSum; sequences stand for … in CUCUCU…GGAGGGAAAAGUUAUCAGGCAUGCACCUGGUAGCUAGUCUUUAAACCAAUAGAUUGCAUCGGUUUAAAAGGCAAGACCGUCAAAUUGCGGGAAAGGGGUCAACAGCCGUUCAGUACCAAGUCUCAGGGGAAACUUUGAGAUGGCCUUGCAAAGGGUAUGGUAAUAAGCUGACGGACAUGGUCCUAACCACGCAGCCAAGUCCUAAGUCAACAGAUCUUCUGUUGAUAUGGAUGCAGUUCACAGACUAAAUGUCGGUCGGGGAAGAUGUAUUCUUCUCAUAAGAUAUAGUCGGACCUCUCCUUAAUGGGAGCUAGCGGAUGAAGUGAUGCAACACUGGAGCCGCUGGGAACUAAUUUGUAUGCGAAAGUAUAUUGAUUAGUUUUGGAGUACUCGUGGUCG
Procedure, shortened: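 Library with all eight P1ex-region intron nucleotides randomised, intron inside the knt kanamycin-resistance gene on pET-22b(+), in E. coli BL21(DE3). Cells grew overnight at 37°C or 30°C on LB agar with or without 25 μg/mL kanamycin (plus 100 μg/mL carbenicillin, 50 μM IPTG, 0.2% rhamnose), in six replicate transformations. Pooled colonies were amplicon-sequenced on Illumina HiSeq 2500. DiMSum fitness is the error-weighted combination of wild-type-normalised replicate fold changes, kanamycin versus none.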

Sequence | self-splicing fitness (ln) (30 °C) | self-splicing fitness (ln) (37 °C)
ACACAGCAAUAUUACGCAGA | -2.48 ± 0.16 | -1.75 ± 0.12
AUCAAGCAAUAUUACGUUUG | -2.87 ± 0.15 | -2.43 ± 0.18
UCCAAGCAAUAUUACGACGC | -2.45 ± 0.18 | -1.25 ± 0.14
CUAAAGCAAUAUUACGGACU | -3.93 ± 0.25 | -1.9 ± 0.27
CGGUAGCAAUAUUACGAUGU | -0.932 ± 0.093 | -0.763 ± 0.15
CUCCAGCAAUAUUACGCUUA | -4.14 ± 0.34 | -2.49 ± 0.24
UCGGAGCAAUAUUACGCUGG | -3.78 ± 0.46 | -1.26 ± 0.17
GCUAAGCAAUAUUACGGAGG | -1.11 ± 0.14 | -1.65 ± 0.29
AUCCAGCAAUAUUACGAACG | -0.746 ± 0.08 | -0.625 ± 0.12
GUCCAGCAAUAUUACGAGGG | -2.29 ± 0.24 | -1.78 ± 0.24
UACAAGCAAUAUUACGAGAA | -2.1 ± 0.29 | -2.42 ± 0.33
ACAAAGCAAUAUUACGCCAC | -3.01 ± 0.38 | –
UUGAAGCAAUAUUACGUGCU | -3.06 ± 0.17 | -1.97 ± 0.16
UUCUAGCAAUAUUACGAGGU | -3.27 ± 0.31 | -1.53 ± 0.2
CGCUAGCAAUAUUACGGAUC | -3.32 ± 0.24 | -1.14 ± 0.15
AUGGAGCAAUAUUACGAGGG | -3.96 ± 0.35 | -2.55 ± 0.42
ACAAAGCAAUAUUACGUGUU | -3.59 ± 0.17 | -2.61 ± 0.16
GGUGAGCAAUAUUACGUGAC | -3.14 ± 0.22 | -0.938 ± 0.22
UCGGAGCAAUAUUACGCAGG | -2.57 ± 0.44 | -2.28 ± 0.43
GCUUAGCAAUAUUACGAGAC | -2.64 ± 0.22 | -1.54 ± 0.18
UAACAGCAAUAUUACGUGCA | -0.792 ± 0.063 | -0.445 ± 0.098
CACGAGCAAUAUUACGGUGG | -2.15 ± 0.11 | -2.33 ± 0.15
AGCAAGCAAUAUUACGUUUU | -2.46 ± 0.077 | -1.71 ± 0.09
UCAUAGCAAUAUUACGGUAC | – | -3.21 ± 0.33

Sequence | self-splicing fitness (ln) (30 °C) | self-splicing fitness (ln) (37 °C)
GACAAGCAAUAUUACGACUU | -0.00142 ± 0.071 | 0.381 ± 0.088
UUCAAGCAAUAUUACGUCGA | -0.383 ± 0.078 | -0.0975 ± 0.087
GUAGAGCAAUAUUACGACGU | -0.438 ± 0.16 | 0.352 ± 0.16
CGUAAGCAAUAUUACGUCAU | -3.23 ± 0.17 | -2.38 ± 0.17
AGGCAGCAAUAUUACGCCAC | -3.45 ± 0.18 | -2.48 ± 0.3
GAUGAGCAAUAUUACGUAAG | -3.37 ± 0.24 | -2.11 ± 0.2
AUGAAGCAAUAUUACGGUCU | -0.0448 ± 0.069 | 0.658 ± 0.087
AACGAGCAAUAUUACGACGA | -2.08 ± 0.17 | -0.282 ± 0.14
UGAAAGCAAUAUUACGAUAU | -2.68 ± 0.18 | -1.21 ± 0.13
GCAUAGCAAUAUUACGAUGG | -1.01 ± 0.09 | -0.54 ± 0.11
CCCUAGCAAUAUUACGGAAU | -3.36 ± 0.37 | -1.82 ± 0.31
GUCAAGCAAUAUUACGGGGA | – | -2.77 ± 0.44
UUUGAGCAAUAUUACGAGAU | -3.65 ± 0.42 | -3.12 ± 0.37
CCUCAGCAAUAUUACGGACA | -3.54 ± 0.19 | -3.15 ± 0.26
ACCGAGCAAUAUUACGGGUG | -1.43 ± 0.061 | -1.08 ± 0.068
GCUUAGCAAUAUUACGUCCU | -1.01 ± 0.12 | -0.274 ± 0.15
ACUGAGCAAUAUUACGUCUU | -2.57 ± 0.13 | -1.11 ± 0.12
AUCAAGCAAUAUUACGAAGA | -1.66 ± 0.19 | -1.64 ± 0.23
CCCUAGCAAUAUUACGACGG | -2.7 ± 0.14 | -2.87 ± 0.34
GAGAAGCAAUAUUACGAGUG | -2.91 ± 0.14 | -1.01 ± 0.11
AUUUAGCAAUAUUACGUGGG | -3.33 ± 0.3 | -2.44 ± 0.3
UGCUAGCAAUAUUACGUGAC | -3.39 ± 0.35 | -2.56 ± 0.41
GCCAAGCAAUAUUACGGCCG | -1.48 ± 0.23 | -2.11 ± 0.46
AGGAAGCAAUAUUACGGUAU | -2.52 ± 0.28 | -0.707 ± 0.24
